Assay results reported in US20240294650A1 (Alector, published 2024).

Legend:
[1] = molecular target: T1, recombinant human MerTK extracellular domain (human, UniProt Q12866 21-505); experiment: SPR Carterra LSA, Ab immobilised
T1 construct: also called human MerTK ECD; not shown: polyHis or TEVS/Thrombin/murine IgG2a-Fc tag
T1 sequence: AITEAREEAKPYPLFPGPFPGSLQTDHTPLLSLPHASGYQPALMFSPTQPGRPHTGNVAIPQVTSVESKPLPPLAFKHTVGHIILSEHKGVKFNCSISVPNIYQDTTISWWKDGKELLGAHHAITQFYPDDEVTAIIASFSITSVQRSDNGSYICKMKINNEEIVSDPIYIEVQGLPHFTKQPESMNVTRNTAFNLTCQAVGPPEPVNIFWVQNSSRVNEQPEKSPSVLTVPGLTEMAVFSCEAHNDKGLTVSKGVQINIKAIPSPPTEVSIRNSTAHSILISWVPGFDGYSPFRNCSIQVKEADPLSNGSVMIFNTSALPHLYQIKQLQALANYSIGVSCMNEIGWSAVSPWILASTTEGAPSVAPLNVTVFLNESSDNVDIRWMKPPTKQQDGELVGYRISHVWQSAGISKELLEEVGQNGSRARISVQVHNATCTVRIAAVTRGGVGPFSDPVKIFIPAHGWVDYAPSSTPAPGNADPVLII
Experimental: Binding kinetics of anti-MerTK IgG1 antibodies of the present disclosure to human, cyno, and murine MerTK were evaluated using a Carterra LSA instrument (Carterra, Salt Lake City, UT). […] A HC200M sensor chip (Carterra) was activated using the single channel flow cell with a 7-minute injection of a 1:1:1 mixture of 100 mM MES pH 5.5, 100 mM sulfo-NHS, 400 mM EDC (all reconstituted in MES pH 5.5; 100 μl of each mixed in vial immediately before running assay). After switching to the multi-channel array flow cell, the antibodies were injected over the activated chip in three 96-spot arrays for 10 minutes each. The remaining unconjugated active groups on the chip were then blocked by injecting 1M Ethanolamine pH 8.5 (Carterra) for 7 minutes using the single channel flow cell. The resulting sensor chip contained three spots for each antibody, at three different densities. Two independent experiments were performed as follows, resulting in an N of between one and six determinations for each antibody. Spots that yielded less than 25 RU of analyte binding were excluded from further analysis.
After priming with running buffer (HBS-TE, Carterra) with 0.5 mg/ml BSA (Sigma), the immobilized anti-MerTK antibodies were tested for their ability to bind to several forms of recombinant MerTK extracellular domain, including human, cynomolgus, and mouse orthologs as described above. Estimates of affinity were generated by injecting each analyte over the entire antibody array using the single channel flow cell. MerTK analytes were diluted with running buffer, in a series of six, three-fold serial dilutions starting from 1 μM for human and cynomolgus MerTK, and 600 nM for mouse MerTK. Analytes were injected for 5 minutes, and dissociation was followed for 10 minutes. After each analyte injection, antibodies were regenerated with either Protein A/G Elution Buffer (Thermo) with 1M NaCl (Teknova), or with 10 mM Glycine pH 2.5. Three buffer blanks were run between each series (one species per series). Data were processed and analyzed using NextGenKIT high-throughput kinetics analysis software (Carterra).

[2] = molecular target: T2, Recombinant human MerTK-human Fc Chimera protein (human, UniProt Q12866 26-499, limits assumed); experiment: blocking ELISA, ProS-His on MerTK-Fc, Ab 66.6 nM, isotype=100%
T2 construct: bought construct; also called MerTK-Fc (R&D systems, Cat #391-MR-100)
T2 sequence: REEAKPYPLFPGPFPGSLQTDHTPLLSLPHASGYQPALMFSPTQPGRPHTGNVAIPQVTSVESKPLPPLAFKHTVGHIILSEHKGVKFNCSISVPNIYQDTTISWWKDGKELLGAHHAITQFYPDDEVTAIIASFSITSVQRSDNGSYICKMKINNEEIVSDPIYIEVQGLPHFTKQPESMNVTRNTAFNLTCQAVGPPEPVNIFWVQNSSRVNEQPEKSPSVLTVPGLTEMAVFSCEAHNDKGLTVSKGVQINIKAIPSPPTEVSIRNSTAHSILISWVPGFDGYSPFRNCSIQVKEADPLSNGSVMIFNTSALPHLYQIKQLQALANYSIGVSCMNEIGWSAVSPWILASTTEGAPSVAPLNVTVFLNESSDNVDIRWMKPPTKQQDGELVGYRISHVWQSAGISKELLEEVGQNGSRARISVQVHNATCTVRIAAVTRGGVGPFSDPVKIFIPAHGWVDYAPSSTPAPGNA
Experimental: Briefly, rabbit anti-human IgG antibody (Jackson ImmunoResearch, Cat #309-005-008) was coated at 2 μg/ml onto high-protein binding plates at 4° C. overnight. After washing with 0.05% Tween20 in PBS three times, 5% BSA in PBS was added for 1 hour. Recombinant human MerTK-human Fe Chimera protein (R&D systems, Cat #391-MR-100) was added at 2 μg/ml for 1 hour and plates were washed before the addition of 40 μl of anti-MerTK hybridoma supernatants and 40 μl of His tag-conjugated recombinant Gas6 (R&D systems, Cat #885-GSB-050) at 3 μg/ml or His tag-conjugated recombinant ProS (R&D systems, Cat #9489-PS-100) at 20 μg/ml. After a further incubation for 1 hour, plates were washed and incubated for 1 hour with HRP-conjugated anti-6×His tagged antibody (Abcam, Cambridge, MA, Cat #ab1187). Plates were then washed and an HRP substrate, TMB, was added to develop the plates. The reaction was stopped by adding 50 μl 2N H₂SO₄ and the OD was measured using a spectrophotometer (BioTek).
Anti-MerTK antibodies were titrated to a final concentration from 66.6 nM to 4 pM and tested against anti-human MerTK antibody M6 (disclosed in WO2016/106221) or isotype control antibody.

B1: MTK-227 (antibody, human IgG1, V domains shown)
VH: EVKLVESGGGLVQPGGSLSLSCAASGFTFTDNYMTWVRQPPGKALEWLGFSRNKANGYTTEYSASVKGRFTISRDSSQSILYLQMNALRAEDSGTYYCARFPPHYYAGGYFDVWGTGTTVTVSS
VL: DIQMTQSPASLSASVGETVTITCRASENIYSYLAWYQQKQGKSPQLLVYNAKTLAEGVPSRFSGSGSGTQFSLKINSLQPADFGSYYCQHYYRTPPTFGGGTKLEIK
In the case of B1, the Kd [1] is reported as 99 nM and the “Percent ProS ligand binding” value [2] is reported as 84.5%.

B2: MTK-201 (antibody, human IgG1, V domains shown)
VH: QVQLRQSGPGLVQPSQSLSITCTVSGFSLSNYGLHWVRQSPGKGLEWLGVIWSGGITDYNAAFISRLSIIKDNSRSQVFFKMNSLQADDTAIYYCARKGHDPYAMDFWGQGTSVTVSS
VL: QIVLTQSPPIMSAFLGERVTMTCTASSSVSSSYLHWYRQMPGSSPKLWIYDTSNLASGVPARFSGSGSGTSYSLTISSMEAEDAATYYCHQYHHSPYTFGGGTKLEIK
B2 was tested, and the “Percent ProS ligand binding” value [2] was 94.3%.

B3: MTK-228 (antibody, human IgG1, V domains shown)
VH: QDQLQQSGPELVKPGASVKISCKASGYSFTSYYIHWVKQRPGQGLEWVGWIFPGNGNTKYNERFKGKATLTADTSSSTAYMQLSSLTSEDSAVYYCARLGLIYALDYWGQGTSVTVSS
VL: DAVMTQTPLSLPVSLGDQASISCRSSQSLENSNGNTYLHWYLQKPGQSPQLLIYRVSNRFSGVLDRFSGSGSGTDFTLKISRVEAEDLGVYFCLQVTHVPFTFGSGTKLEIK
B3 was tested, and the Kd [1] was 42 nM and the “Percent ProS ligand binding” value [2] was 216%.

B4: MTK-218 (antibody, human IgG1, V domains shown)
VH: QVQLQQSGPELVKPGTSVKISCKASGYSFTSYYIHWVKQRPGQGLDWIGWIFPGNRNTQYNEKFKGKATLTADTSSSTAYMQLSSLTSEDSAVYYCARLGLIYALDYWGQGTSVTVSS
VL: DAVMTQTPLSLPVSLGDQASISCRSSQSLENSNGHTYLHWYLQKPGQSPQLLIYRVSNRFSGVQDRFSGSGSGTDFTLKISRVEAEDLGVYFCLQVTHVPFTFGSGTKLEIK
In the case of B4, the Kd [1] is reported as 64 nM and the “Percent ProS ligand binding” value [2] is reported as 179%.

B5: MTK-226 (antibody, human IgG1, V domains shown)
VH: QVQLQQSGPELVKPGASVKISCKASGYSFTSYYIHWVKQRPGQGLEWIGWIFPGNGNTKYNENFRGKATLTADTSSSTAYMQLSSLTSEDSAVYYCARLGLIYALDYWGQGTSVTVSS
VL: DAVMTQTPLSLPVSLGDQASISCRSSQSLESSNGNTYLHWYLQKPGQSPQLLIYRVSNRFSGVLDRFSGSGSGTDFTLQISRVEAEDLGVYFCLQVTHVPFTFGSGTKLEIK
In the case of B5, the Kd [1] is reported as 39 nM and the “Percent ProS ligand binding” value [2] is reported as 175%.

B6: MTK-223 (antibody, human IgG1, V domains shown)
VH: DVQLQESGPGLVKPSQSLSLTCSVTGYSITSGYYWNWIRQFPGNKLEWMGYISYDGTNNYNPSLKNRISITRDTSENQFFLKLNSVTTEDTATYFCVRGAGYWGQGTTLTVSS
VL: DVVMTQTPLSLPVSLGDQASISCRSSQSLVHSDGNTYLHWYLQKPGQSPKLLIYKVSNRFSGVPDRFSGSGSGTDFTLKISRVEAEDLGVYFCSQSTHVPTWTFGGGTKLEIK
In the case of B6, the Kd [1] is reported as 75 nM and the “Percent ProS ligand binding” value [2] is reported as 37.4%.

B7: MTK-229 (antibody, human IgG1, V domains shown)
VH: QVQLQQSGPELVKPGASVKISCKASGYEFSRSWMNWVKQRPGKGLEWIGRIYPGDGDTNYKGKLKGQATLTADKSSSTAYMQLSSLTFEDSAVYFCARGGGYYYDSRYEGFVYWGQGTVVTVSA
VL: QIVLTQSPAIMSASPGEEVTMTCSASSSVSYMHWYQQKSGTSPKRWIYDTSKLASGVSGRFSGSGSGTSYSLTISSMEAEDAATYYCQQWSSNPPITFGAGTKLELK
With B7 the Kd [1] was 18 nM and the “Percent ProS ligand binding” value [2] was 117%.

B8: MTK-211 (antibody, human IgG1, V domains shown)
VH: QVQLQQSGAELMKPGASVKLSCKATGYTFTGYWIEWVKQRPGHGLEWIGEILPGSGGSNYNEKFKGKATFTADTSSNTAYIQLSSLTTEDSAIYCCARGEPSYFSDAGFAYWGQGTLVTVSA
VL: QIVLTQSPAVMSASPGEKVTMTCSASSSITYMHWYQQKPGTSPKRWIYDTSKLASGVPARFSGSGSGTSYFLTISSMEAEDVATYYCHQRSTYPYTFGGGTKLEIM
B8 was tested, and the Kd [1] was 1.3 nM and the “Percent ProS ligand binding” value [2] was 106%.

B9: MTK-213 (antibody, human IgG1, V domains shown)
VH: QVQLQQPGAELVKPGASVKMSCKASGYTFTSYWITWVKQRPGQGHEWIGEIYPGIGSTNYNEKFKSKATLTVDTSSRTAYMQLSSLTSEDSAVYFCARGAYTKYYFDYWGQGTTLTVSS
VL: DIVMTQSHKFMSTSVGDRVSITCKASQDVGDAVAWYQQKPGQTPKLLIYWASTRHTGVPDRFTGSGSGTDFTLTISNVQSEDLADYFCQQYSSYLMYTFGGGTKLEIK
With B9 the Kd [1] was 64 nM and the “Percent ProS ligand binding” value [2] was 43.2%.

B10: MTK-220 (antibody, V domains shown)
VH: EVQLVESGGGLVKPGGSLKLSCAASGFTFSDYGMHWVRQAPEKGLEWVAFISGGSGTIYYEDTVKGRFTISRDNAKNTLFLQMTSLRSEDTAMYYCTRGGNYFDYWGQGTTLTVSS
VL: NIMLTQSPSSLAVSAGEKVTMTCKSSQSVLYSSNQKNYLAWYQQKPGQSPKLLIYWASTRESGVPDRFTGSGSGTDFTLTISNVQAEDLAVYYCHQYFSSWTFGGGTKLEIK
B10 was tested, and the Kd [1] was 150 nM and the “Percent ProS ligand binding” value [2] was 63.4%.

B11: MTK-219 (antibody, human IgG1, V domains shown)
VH: QVQLQQSGADLMKPGASVKLSCKATGNTFTGYWIEWVKQRPGHGLEWIGEILTGSGSTNYNERFKGKATFTADTSSNTAYMQLSSLTTEDSAIYYCAGSYFTNSWFPYWGQGSLVTVSA
VL: DIVLTQSPASLAVSLGQRATISCRASESVDSYGNSFMHWYQQKPGQPPKLLIYRAYTLESGIPARFSGSGSRTDFTLTINPVEADDVATYYCQQSNEDPRTFGGGTKLEIK
For B11, the Kd [1] was 440 nM and the “Percent ProS ligand binding” value [2] was 100%.

B12: MTK-222 (antibody, human IgG1, V domains shown)
VH: QVQLQQSGADLMKPGASVKLSCKATGYTFTGYWIEWVKQRPGHGLEWIGEILTGSGSSNYNEKFKGKATFTADSSSNTAFMQLSSLTTEDSAIYYCAGSYYSNSWFPYWGQGSLVTVSA
VL: DIVLTQSPVSLAVSLGQRATISCRASESVDSYGSSFMHWYQQKPGQPPKLLIYRASSLESGIPARFSGSGSRTDFTLTINPVETDDVATYYCQQSNEDPRTFGGGTKLEIK
In the case of B12, the Kd [1] is reported as 130 nM and the “Percent ProS ligand binding” value [2] is reported as 88.2%.

B13: MTK-210 (antibody, human IgG1, V domains shown)
VH: QVQLQQSGPELVKPGASVKISCKASDYEFSRSWMNWVKQRPGKGLEWIGRIYPGDGDTNYNGKFKGKATLTADKSSNTAYMQLNSLTSEDSAVYFCARKGGYYYSISNYFDYWGQGTTLTVSS
VL: QIVLTQSPAIMSASPGVKVTMTCSASSSVSYMHWYQQKPGSSPRLLIYDTSNLASGVPVRFSGSGSGTSYSLTISRMEAEDAATYYCQQWSSYPPYTFGGGTKLEIK
With B13 the Kd [1] was 31 nM and the “Percent ProS ligand binding” value [2] was 116%.
